What is called Kd is the equilibrium constant for the complex coming apart. Low values mean a tighter complex, high ones a looser complex. What is called koff is a measure of how fast the partners let go of each other. High values mean a short-lived complex, low ones a long-lived complex. One may read the kon as a measure of how fast the partners come together. A higher kon goes with faster complex formation. For orientation: EC50 means the concentration that produces a half-maximal response.

Data on two molecules can be found in patent US20130251707A1 (BALIOPHARM, published 2013).

One assay addresses T1, mouse TNFR1-Fc (mouse; human, UniProt P25118 30-212).
T1 construct: range 30-212; also called moTNFR1-Fc; not shown: Fc of vector pSecTagL1-Fc (human IgG1 Fc is stated for the human TNFR1-Fc)
T1 sequence (looked up): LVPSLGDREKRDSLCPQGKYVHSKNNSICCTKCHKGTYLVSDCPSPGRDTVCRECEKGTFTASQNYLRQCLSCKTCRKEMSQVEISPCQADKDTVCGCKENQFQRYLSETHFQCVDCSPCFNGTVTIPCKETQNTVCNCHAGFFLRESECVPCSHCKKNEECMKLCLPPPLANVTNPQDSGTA
Briefly: ELISA on coated TNFR1-Fc (100 ng/well). Here is the method: (100 ng/well). Binding was detected by HRP-conjugated anti-molgG (Fc-specific) antibody or anti-human Fab antibody, respectively. Binding of an anti-human Fc antibody (anti-Fc) was included as coating control.
Background: In an ELISA, binding on a coated surface is turned into a signal by an enzyme label.

Assay [1] deals with T2, chimeric human/mouse TNFR1-Fc construct 8 (mouse TNFR1 with human CRD1 and sub-domain A1 of CRD2) (human; mouse, UniProt P25118 100-212, limits assumed).
T2 construct: The label hl-2A1/m2B2-4 is tied to construct 8 by inference; also called chimeric TNFR1 hl-2A1/m2B2-4; not shown: Fc of vector pSecTagL1-Fc
T2 sequence: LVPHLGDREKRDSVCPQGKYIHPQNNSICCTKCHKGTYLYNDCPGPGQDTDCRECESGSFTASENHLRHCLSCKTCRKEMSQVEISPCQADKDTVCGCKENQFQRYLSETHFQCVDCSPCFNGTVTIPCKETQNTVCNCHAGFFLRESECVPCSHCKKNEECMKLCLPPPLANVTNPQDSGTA
Description: ELISA on chimeric TNFR1-Fc, antibody 0.1 nM. Here is the method:
(§1) Antibodies (0.1 nM) were analyzed by ELISA for binding to the TNFR1-Fc fusion proteins. […] Cysteine residues are marked with grey boxes and the 2 positions (P23, Q24) analyzed by site-directed mutagenesis are marked by asterisks.

The target of assay [2] is T3, human TNFR2-Fas on transfected mouse embryonic fibroblasts (human, UniProt P20333 23-257; P25445 191-335, limits assumed).
T3 construct: extracellular domain;domain: intracellular domain; also called MEF-TNFR2-Fas
T3 sequence (looked up): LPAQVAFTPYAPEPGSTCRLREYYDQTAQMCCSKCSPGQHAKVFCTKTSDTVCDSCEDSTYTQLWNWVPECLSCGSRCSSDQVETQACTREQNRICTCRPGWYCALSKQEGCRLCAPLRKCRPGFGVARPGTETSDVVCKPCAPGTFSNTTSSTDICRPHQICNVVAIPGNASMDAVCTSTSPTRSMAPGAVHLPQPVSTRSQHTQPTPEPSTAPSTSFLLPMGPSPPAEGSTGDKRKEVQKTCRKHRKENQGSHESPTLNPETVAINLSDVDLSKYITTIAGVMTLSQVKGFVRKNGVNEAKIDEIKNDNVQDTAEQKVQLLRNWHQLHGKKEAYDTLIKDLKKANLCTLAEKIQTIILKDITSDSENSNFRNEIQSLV
Briefly: flow cytometry on transfected MEF cells. Here is the method:
(§2) Binding to TNFR1-Fas or TNFR2-Fas transfected MEF cells was analyzed by flow cytometry. Cells (2×105) were incubated with dilution series of antibodies for 4 h at 4° C. Cells were then washed with PBS and bound antibodies were detected with PE-labeled goat anti-mouse or anti-human antibody. Cells were analyzed by flow cytometry (Cytomics FC 500, Beckmann-Coulter, Krefeld, Germany). Data were evaluated with the program WinMDI, version 2.9, and fitted with GraphPrism software (La Jolla, USA) from 3 independent binding curves.

For assay [3], the target named is T4, human TNFR1 on Kym-1, HeLa and HT1080 cells (human, UniProt P19438 30-455).
T4 sequence (looked up): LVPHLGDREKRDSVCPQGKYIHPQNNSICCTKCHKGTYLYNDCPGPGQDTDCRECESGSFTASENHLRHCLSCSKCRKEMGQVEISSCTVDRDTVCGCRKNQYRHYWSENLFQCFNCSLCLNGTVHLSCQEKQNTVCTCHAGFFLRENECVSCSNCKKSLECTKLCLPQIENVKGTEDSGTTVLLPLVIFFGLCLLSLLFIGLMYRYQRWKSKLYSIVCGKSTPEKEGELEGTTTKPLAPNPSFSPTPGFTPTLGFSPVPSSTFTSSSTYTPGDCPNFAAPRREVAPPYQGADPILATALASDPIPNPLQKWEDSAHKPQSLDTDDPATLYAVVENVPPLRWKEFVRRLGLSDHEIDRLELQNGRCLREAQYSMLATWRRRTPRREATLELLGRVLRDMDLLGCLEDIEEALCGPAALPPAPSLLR
Description: cell-based or functional assay.

Another assay has as its target T5, rhesus TNFR1-Fc (rhesus; human, UniProt A0A1D5QSM0 27-209).
T5 construct: range 27-209; also called rheTNFR1-Fc; not shown: Fc of vector pSecTagL1-Fc (human IgG1 Fc is stated for the human TNFR1-Fc)
T5 sequence: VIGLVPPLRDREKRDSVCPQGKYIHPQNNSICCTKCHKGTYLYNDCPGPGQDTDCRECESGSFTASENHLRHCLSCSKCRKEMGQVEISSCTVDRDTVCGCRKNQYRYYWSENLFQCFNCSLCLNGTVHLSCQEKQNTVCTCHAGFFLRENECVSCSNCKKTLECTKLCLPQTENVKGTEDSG
Briefly: quartz crystal microbalance, TNFR1-Fc immobilized. The procedure: (§3) Affinities of the antibodies were determined by quartz crystal microbalance measurements (QCM; Attana A-100 C-Fast system, Stockholm, Sweden). Binding experiments were performed in PBS 0.005% Tween 20 at a flow rate of 25 to 35 μl/min and temperature was controlled at 20° C. The TNFR1-Fc fusion proteins were chemically immobilized on an Attana carboxyl sensor chip by amine coupling at a concentration of 50 μg/ml according to the manufacturer's protocol resulting in a signal increase (frequency shift) of approximately 200 Hz. Antibodies were analyzed at concentration between 62.5 and 3.9 nM (4 measurements per concentration). The chip was regenerated with 10 mM glycine-HCl, pH 3.0. Buffer injections were performed prior to each sample injection to use as a reference in Attester Evaluation. Data were collected by Attester 3.0 (Version 3.1.1.8, Attana, Stockholm, Sweden) and analyzed by ClampXP (Myszka and Morton 1998). A mass transport model (Myszka 1997) was fitted to the data.

For the next assay, the target named is T6, human TNFR1-Fc (human, UniProt P19438 29-211).
T6 construct: range 29-211; also called huTNFR1-Fc; recombinant human TNFR1-Fc fusion protein; not shown: human IgG1 Fc region (vector pSecTagL1-Fc)
T6 sequence (looked up): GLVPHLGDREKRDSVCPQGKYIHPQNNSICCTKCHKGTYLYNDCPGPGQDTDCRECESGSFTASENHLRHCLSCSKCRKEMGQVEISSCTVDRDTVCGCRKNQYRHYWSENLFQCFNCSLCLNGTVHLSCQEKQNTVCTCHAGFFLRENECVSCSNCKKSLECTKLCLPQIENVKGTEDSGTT
Briefly: quartz crystal microbalance, TNFR1-Fc immobilized. The procedure:
as §3

For assay [4], the target named is T7, human TNFR1-Fas on transfected mouse embryonic fibroblasts (human, UniProt P19438 30-211; P25445 191-335, limits assumed).
T7 construct: extracellular domain;domain: intracellular domain; also called MEF-TNFR1-Fas
T7 sequence (looked up): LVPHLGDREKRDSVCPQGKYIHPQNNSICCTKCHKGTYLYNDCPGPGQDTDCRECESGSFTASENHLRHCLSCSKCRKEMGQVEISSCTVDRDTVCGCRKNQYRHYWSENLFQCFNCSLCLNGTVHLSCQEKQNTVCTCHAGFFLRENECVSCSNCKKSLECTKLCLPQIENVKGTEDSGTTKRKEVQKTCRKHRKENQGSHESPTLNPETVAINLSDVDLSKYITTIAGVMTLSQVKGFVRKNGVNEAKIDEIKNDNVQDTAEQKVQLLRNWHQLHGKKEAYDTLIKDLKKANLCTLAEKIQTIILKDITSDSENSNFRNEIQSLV
Briefly: flow cytometry, titration on MEF-TNFR1-Fas cells. The procedure:
as §2
(In general: Flow cytometry measures light scatter and fluorescence of single cells or particles in a stream.)

Assay [5] has as its target T8, chimeric human/mouse TNFR1-Fc construct 5 (A1 domain of CRD1 of human TNFR1 exchanged with the mouse sequence) (mouse; human, UniProt P25118 30-58; P19438 59-211, limits assumed).
T8 construct: not shown: Fc of vector pSecTagL1-Fc
T8 sequence (looked up): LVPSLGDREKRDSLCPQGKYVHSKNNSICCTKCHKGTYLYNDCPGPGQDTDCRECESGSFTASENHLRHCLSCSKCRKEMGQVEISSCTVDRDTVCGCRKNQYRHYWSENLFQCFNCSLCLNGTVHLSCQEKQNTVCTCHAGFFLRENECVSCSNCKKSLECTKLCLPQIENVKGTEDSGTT
Description: ELISA on chimeric TNFR1-Fc. Here is the method:
as §1

Assay [6] has as its target T9, chimeric human/mouse TNFR1-Fc construct 4 (human CRD1 substituted by the mouse domain) (mouse; human, UniProt P25118 30-82; P19438 83-211, limits assumed).
T9 construct: not shown: Fc of vector pSecTagL1-Fc
T9 sequence (looked up): T8 sequence (looked up) with Y40V, N41S, G45S, Q48R, D51V
Briefly: ELISA on chimeric TNFR1-Fc. The procedure: as §1

Assay [7] deals with T10, chimeric human/mouse TNFR1-Fc construct 3 (human CRD1 and 2 substituted by the mouse domains) (mouse; human, UniProt P25118 30-125; P19438 126-211, limits assumed).
T10 construct: not shown: Fc of vector pSecTagL1-Fc
T10 sequence (looked up): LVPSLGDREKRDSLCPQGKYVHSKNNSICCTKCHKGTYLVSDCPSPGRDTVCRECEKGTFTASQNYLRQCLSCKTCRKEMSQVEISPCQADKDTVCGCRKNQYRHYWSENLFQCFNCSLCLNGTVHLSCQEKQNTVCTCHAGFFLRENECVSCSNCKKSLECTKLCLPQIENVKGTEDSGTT
Description: ELISA on chimeric TNFR1-Fc. The procedure: as §1

Changes are numbered by the printed parent chain. Names may count otherwise.

B1: ATROSAB (antibody, human IgG1, kappa, V domains shown)
VH: QVQLVQSGAEVKKPGSSVKVSCKASGYTFTDFYINWVRQAPGQGLEWIGEIYPYSGHAYYNEKFKARVTITADKSTSTAYMELSSLRSEDTAVYYCARWDFLDYWGQGTTVTVSS
VL: DIVMTQSPLSLPVTPGEPASISCRSSQSLLHSNGNTYLHWYLQKPGQSPQLLIYTVSNRFSGVPDRFSGSGSGTDFTLKISRVEAEDVGVYYCSQSTHVPYTFGGGTKVEIKR
notes: Humanized full-length human IgG1 made in CHO cells; Effector-deficient Fc (IgG1e3: E233P/L234V/L235A/deltaG236, A327G/A330S/P331S), allotype G1m-1,17; also called IZI-06.1 IgG; humanized H398 IgG1
On to B1, for which the binding result was “no binding (tested: 5 ug/ml)” in the assay with mouse TNFR1-Fc; “binds” in assay [1]; “no binding” in assay [2]; “no binding (tested: 0.1 nM)” in [5]; “no binding (tested: 0.1 nM)” in assay [6]; “no binding (tested: 0.1 nM)” in [7]. The “IC50, inhibition of TNF-induced IL-6 release from HeLa cells” value in [3] was found to be 60 nM. In assay [3], the “IC50, inhibition of TNF-induced IL-8 release from HT1080 cells” value is 60 nM. Moreover, the results for the Kd with rhesus TNFR1-Fc and with human TNFR1-Fc were 0.1 nM and 0.35 nM, respectively. Moreover, the koff with rhesus TNFR1-Fc came to 6.7e-05 s⁻¹; with human TNFR1-Fc it was 0.00013 s⁻¹. Further, the kon with rhesus TNFR1-Fc stood at 690000 M⁻¹ s⁻¹; with human TNFR1-Fc, 380000 M⁻¹ s⁻¹. The same molecule returned an EC50 in assay [4] of roughly 0.1 nM.

B2: H398 (antibody, V domains shown)
VH: QVQLQESGAELARPGASVKLSCKASGYTFTDFYINWVKQRTGQGLEWIGEIYPYSGHAYYNEKFKAKATLTADKSSSTAFMQLNSLTSEDSAVYFCVRWDFLDYWGQGTTLTVSS
VL: DIVMTQSPLSLPVSLGDQASISCRSSQSLLHSNGNTYLHWYVQKPGQSPKLLIYTVSNRFSGVPDRFSGSGSGTDFTLKISRVEAEDLGVYFCSQSTHVPYTFGGGTKLEIK
In the case of B2, in assay [3], the “IC50, inhibition of TNF-induced IL-6 release from HeLa cells” value was determined as 6 nM and the “IC50, inhibition of TNF-induced IL-8 release from HT1080 cells” value came out at 6 nM. In the assay with rhesus TNFR1-Fc, binding was characterised by a dissociation constant (Kd) of 0.49 nM, the koff came out at 0.0001 s⁻¹ and the kon worked out at 210000 M⁻¹ s⁻¹. Also, in the assay with human TNFR1-Fc, the Kd was 0.23 nM, the koff worked out at 7e-05 s⁻¹ and the kon turned out to be 310000 M⁻¹ s⁻¹. The EC50 in [4] is roughly 0.1 nM.
